The record followed here is patent US20090291081A1 (AbbVie / Abbott, published 2009).

The target of assay [1] is T1, human IL-1α (human, UniProt P01583 113-271).
T1 sequence (looked up): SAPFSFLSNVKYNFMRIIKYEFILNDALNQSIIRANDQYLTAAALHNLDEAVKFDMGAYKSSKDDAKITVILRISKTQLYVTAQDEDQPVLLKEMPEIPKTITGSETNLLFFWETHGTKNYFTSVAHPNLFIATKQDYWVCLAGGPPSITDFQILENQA
Nature of the assay: cell-based or functional assay.

In another assay the target is human IL-1β (human, UniProt P01584 117-269). Put plainly: cell-based or functional assay.
Assay [2] addresses T2, human IL-1α (human, UniProt P01583 113-271).
T2 construct: also called IL-1alpha; hIL-1α
T2 sequence (looked up): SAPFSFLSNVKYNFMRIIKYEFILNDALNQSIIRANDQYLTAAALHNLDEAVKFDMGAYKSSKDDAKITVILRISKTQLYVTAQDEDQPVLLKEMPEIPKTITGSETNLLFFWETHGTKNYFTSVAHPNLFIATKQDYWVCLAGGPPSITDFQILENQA
Put plainly: Table 62 KD; BIAcore presumed.

In assay [3] the target is T2, human IL-1α. Nature of the assay: Table 62 IC50; RBA presumed.
In assay [4] the target is T2, human IL-1α. Nature of the assay: cell-based or functional assay. This is another data set of the same source.

B1: Fab ABT1-122/ABT2-108 (Fab, V domains shown)
VH: EVQLLESGGGLVQPGGSLRLSCAASGFTFAEYTMMWVRQAPGKGLEWVSRIGQDGKNTYYADSVKGRFTISRDNSKNTLYLQMNSLRAEDTAVYYCAKYTGRVGVHHLFDYWGQGTLVTSS
VL: DIQMTQSPSSLSASVGDRVTITCRASQPIWTELNWYQQKPGKAPKLLIYGSSSLQSGVPRFSGSGSGTDFTLTISSLQPEDFATYYCQQFAYFPATFGQGTKVEIKR
With B1, the “Fab IL-1α ND10” value with human IL-1α [1] was found to be 3 nM. For the same molecule, the “Fab IL-1β ND10” value with human IL-1β came out at 50 nM.

B2: Fab ABT1-141/ABT2-108 (Fab, V domains shown)
VH: EVQLLESGGGLVQPGGSLRLSCAASGFTFAEYTMMWVRQAPGKGLEWVSRIGQDGKNTYYADSVKGRFTISRDNSKNTLYLQMNSLRAEDTAVYYCAKYTGRVGVHHLFDYWGQGTLVTSS
VL: DIQMTQSPSSLSASVGDRVTITCRASQWIQKQLAWYQQKPGKAPKLLIYSSSYLQSGVPRFSGSGSGTDFTLTISSLQPEDFATYYCQQHLRVPFTFGQGTKVEIKR
Turning to B2, in the assay with human IL-1α [1], the “Fab IL-1α ND10” value is 10 nM. Besides, the “Fab IL-1β ND10” value with human IL-1β amounted to 15 nM.

B3: ABT1-95-6 (other)
VL: DIQMTQSPSSLSASVGDRVTITCRASQPIQGNLRWYQQKPGKAPKLLIYSSSYLESGVPSRFSGSGSGTDFTLTISSLQPEDFATYHCQQGYRWPVTFGQGTKVEIKR
notes: VK dAb
In turn, B3 registered a Kd in the assay with human IL-1α [2] of 2.1 nM. Besides, in the assay with human IL-1α [3], the IC50 worked out at 0.8 nM. The molecule also had an ND50 in the assay with human IL-1α [4] of 1 nM.

B4: ABT1-95-13 (other)
VL: DIQMTQSPSSLSASVGDRVTITCRASQPIVRNLRWYQQKPGKAPKLLIYSSSYLERGVPSRFSGSGSGTDFTLTISSLQPEDFATYHCQQGYRWPVTFGQGTKVEIKR
notes: VK dAb
In the case of B4, in the assay with human IL-1α [2], binding was characterised by a dissociation constant (Kd) of 0.9 nM. The molecule also returned a half-maximal inhibitory concentration (IC50) in the assay with human IL-1α [3] of 0.3 nM. The molecule further showed an ND50 with human IL-1α [4] of 0.12 nM.

B5: ABT1-95-11 (other)
VL: DIQMTQSPSSLSASVGDRVTITCRASQPIQGNLRWYQQKPGIAPKLLIYSSSYLERGVPSRFSGSGSGTDFTLTISSLHPEDLATYHCQQGYRWPVTFGQGTKVEIKR
notes: VK dAb
In the assay with human IL-1α [2], B5 showed a dissociation constant (Kd) of 1.1 nM. The molecule also showed an IC50 in the assay with human IL-1α [3] of 0.9 nM. For the same molecule, in the assay with human IL-1α [4], the ND50 amounted to 0.3 nM.

B6: ABT1-95-14 (other)
VL: DIQMTQSPSSLSASVGDRVTITCRASQPIVKNLRWYQQKPGKAPKLLIYSSSYLERGVPSRFSGSGSGTDFTLTISSLQPEDFATYHCQQGYRWPVTFGQGTKVEIKR
notes: VK dAb
B6: the Kd with human IL-1α [2] stood at 1.2 nM. The molecule also gave an IC50 with human IL-1α [3] of 0.3 nM. Moreover, in the assay with human IL-1α [4], the ND50 was determined as 0.25 nM.

B7: ABT1-95-8 (other)
VL: DIQMTQSPSSLSASVGDRVTITCRASQPIQGNLRWYQQKPGKAPKLLIYSSSYLERGVPSRFSGSGSGTDFTLTISSLQPEDFATYHCQQGYRWPVTFGQGTKVEIKR
notes: VK dAb
As for B7, the Kd in the assay with human IL-1α [2] amounted to 2.1 nM. This molecule yielded a 50% inhibitory concentration (IC50) with human IL-1α [3] of 0.8 nM. The ND50 in the assay with human IL-1α [4] was determined as 1 nM.

B8: Fab ABT1-96/ABT2-42 (Fab, V domains shown)
VH: EVQLLESGGGLVQPGGSLRLSCAASGFTFNQYNMFWVRQAPGKGLEWVSVISGSGRFTYADSVKGRFTISRDNSKNTLYLQMNSLRAEDTAVYYCAKGWWRRDPPFDYWGQGTLVTVSS
VL: DIQMTQSPSSLSASVGDRVTITCRASQYIEKWLTWYQQKPGKAPTLLIYRGSLLQSGVPRFSGSGSGTDFTLTISSLQPEDFATYYCQQTEYWPFTFGQGTKVEIKR
For B8, in the assay with human IL-1α [1], the “Fab IL-1α ND10” value is 3 nM. Besides, the “Fab IL-1β ND10” value with human IL-1β is 10 nM.

B9: Fab ABT1-96/ABT2-13 (Fab, V domains shown)
V domain 1: EVQLLESGGGLVQPGGSLRLSCAASGFTFNQYNMFWVRQAPGKGLEWVSVISGSGRFTYADSVKGRFTISRDNSKNTLYLQMNSLRAEDTAVYYCAKGWWRRDPPFDYWGQGTLVTVSS
V domain 2: EVQLLESGGGLVQPGGSLRLSCAASGFTFRDYVMYWARQAPGKGLEWVSRIDPMGSSTYYADSVKGRFTISRDNSKNTLYLQMNSLRAEDTAVYYCAKPEGNFDYWGQGTLVTVSS
On to B9, for which the “Fab IL-1α ND10” value with human IL-1α [1] was found to be 0.9 nM. Further, in the assay with human IL-1β, the “Fab IL-1β ND10” value was found to be 80 nM.

The term Kd denotes a measure of binding affinity in units of concentration. In general, IC50 refers to the point on the concentration scale where inhibition reaches its midpoint.
